Reference: article PMC3769348, “Secreted and Transmembrane 1A Is a Novel Co-Stimulatory Ligand” (PLoS ONE, 2013)

Target: T1, SECTM1B-Fc fusion protein (extracellular domain of murine SECTM1B fused to aglycosyl human IgG1 Fc) (mouse, UniProt Q9JL59 29-160, N-glycosylated)
T1 construct: Secreted and transmembrane 1B (SECTM1B), mouse, extracellular domain; The cDNA was cloned between a CD5 leader and the human IgG1 aglycosyl Fc in pEE12(CMV/T7)CD5Lhγ1; also called mSECTM1B-Fc; Secreted and transmembrane 1B; source: CHO-S cells, purified with protein G agarose (elution with glycine pH 2.0); not shown: Fc (human IgG1, aglycosyl mutant), C-terminal, kept
T1 sequence (looked up): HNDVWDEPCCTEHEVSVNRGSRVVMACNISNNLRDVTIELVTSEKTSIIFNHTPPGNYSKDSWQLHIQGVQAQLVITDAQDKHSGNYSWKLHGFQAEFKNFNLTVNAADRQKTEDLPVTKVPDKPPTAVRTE
Assay: SPR; BIAcore 3000, 25°C, CM5 chip; Fc fusion proteins held on separate flow cells by mouse anti-human IgG (SBH2) on amine-coupled rabbit anti-mouse antibody; Fc fusion proteins at 25 µM injected in HEPES-buffered saline pH 7.4 at 5 µl per minute
Settings: both partners purified

binding result: binds
B1: CD7-Fc fusion protein (extracellular domain of murine CD7 fused to aglycosyl human IgG1 Fc) (Fc fusion, mouse, UniProt P50283 24-150, looked up)
chain: QDVHQSPRLTIASEGDSVNITCSTRGHLEGILMKKIWPQAYNVIYFEDRQEPTVDRTFSGRINFSGSQKNLTITISSLQLADTGDYTCEAVRKVSARGLFTTVVVKEKSSQEAYRSQEPLQTSFSFP
modifications: N-glycosylated
notes: CD7, mouse, extracellular domain; The cDNA was cloned between a CD5 leader and the human IgG1 aglycosyl Fc in pEE12(CMV/T7)CD5Lhγ1; also called mCD7-Fc; source: CHO-S cells, purified with protein G agarose (elution with glycine pH 2.0); not shown: Fc (human IgG1, aglycosyl mutant), C-terminal, kept
